Reference: the nanobody polyreactivity screen of Harvey et al. (2022)

Test: yeast display, Sf9 membrane polyspecificity reagent, FACS + sequencing; frameworks hold sequencing errors
Method in brief: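 A synthetic nanobody library was expressed on Saccharomyces cerevisiae BJ5465 by galactose induction for 36–48 hours. The library was stained for 1 hour at 4 °C with 10% biotinylated, detergent-solubilized Sf9 membrane reagent and enriched with streptavidin microbeads before FACS. Low and high (top ~1%) gates were set on anti-HA fluorescence for expression and streptavidin fluorescence for reagent binding, and each polyreactivity label reflects the gate of origin.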

Sequence	polyreactivity (PSR sort gate)
QVQLVESGGGLVQAGGSLRLSCAASGSIFTYYTMGLYRQAPGKERELVADITGGGSSTYYADSVKGRFTISRDNAKNTVYLQMNSLKPEDTAVYYCAADKYWAQNDYWGQGTQVTVSS	low polyreactivity
QVQLVESGGGLVQAGGSLRLSCAASGRIYWNDMGWYIQAPGKERELVAAISWGGDRTYYADSVKGRFTISRDNAKNTVYLQMNSLKPEDTSVYYCNAPGYLTYDHSYDYWGQGTQVTVSS	low polyreactivity
QVQLVESGGGLVQAGGSLRLSCAASGITFPANAMGWYRQAPGKQWELVAAISSYGGSTYYADSVKGRFTISRDNEKNTVDLQMNSLKPEDTAVYYCAAYLSSLGRKYYYWGQGTQVTVSS	high polyreactivity
QVQLVESGGGLVQAGGSLRLSCDASGNTSSYYTMGWYRQAPGKERELGARISNRGTNTYYAESVKGRVTISRDNAKNTVYLQMNSLKPEDTAVYYCAALYWFYVYPFTEYDYWGQGTQVTVSS	low polyreactivity
QVQLVESGGGLVQAGGSLRLSCAASGSIFVPNAMGWYRQAPGKERELVAAISGIGGSTSYADSVKGRFTISRDNAKNTVYLQMNSLKPEDTAVYYCARADKLHTRGWGRWGSGSYSWGQGTQVTVSS	low polyreactivity
QDQHVESGGGLVQAGGSLRLSCAASGRTFYSYTMGWYRPPPGKERELVAAINRSGGRTYYADSVKGRFTISRDNAKNTVYLQRNSLKPEDTAVYYCNALEYYRFDYWGQCTQVTVSS	high polyreactivity
QVQLVESGGGLVQAGGSLRLSCAASGIIFLENAMGWYRQAPGKERELVAGISSGGNTNYADSVKGRFTISRDNAKNTVYLQMNSLKPEDTAVYYCNTDWYLPRYVLLGYFSGTEDYWGQGTQVTVSS	low polyreactivity
QVQLVESGGGLDQAGGSLRLSCAASGFIFYDYDMGWYRQAPGKERELVAAISDGGSTNYADSVKGRFTISRDNAKNTVYFQRNSLKPEDTAVYYCAKDGFVYYDYFQYIEYDYWGQGTQVTVSS	low polyreactivity
QVQLVESGGGLVQAGGSLRLSCAASGFIFAEYAMGWYRQAPGKEREFVASITYSGGRTYYADSVKGRFTISRDNAKNTVYLQMNSLKPEDTAVYYCATARYRYHYYSWGQGTQVTVSS	high polyreactivity
QVQLVESGGGLVQAGGSLRLSCAASGFTFPSYAMGWYRQAPGKERELGAVISRRGGSTYYADSVKGRFTISRDNAKNTVYLQLNSLKPEDTAVYYCARPRQPGSLYGYWGQGTQVTVSS	high polyreactivity
QVQLVESGGGLVQAGGSLRLSCAASGSTFGYNAMGWYRQAPGKERELVARITSSGGSTYYADSVKGRFTISRDNAKNTVYLQMNSLKPEDTAVYYCAAGYPYRAVYRYYYWGQGTQVTVSS	high polyreactivity
QVQLVESGGGLVQAGGSLRLSCAASGRTLTLNAMGWYRQAPGKERELVAAISGSGGRTFYADSVKGRFTISRDNAKNTVYLQMNSLKPEDTAVYYCAADYFYLKWYEYWGQGTQVTVSS	high polyreactivity
QVQLVDSGGGLVQAGGSLRLSCAPYVLIFWAYAMGWYRQAPGKERELVAAISWSGARTYYADSVMGRFTISRDHAKHTVYLQMNSLKPEDTAVYYCAVGVQSSKRHDYWGQGTQVTVSS	high polyreactivity
QVQLVESGGGLVQAGGSLRLSCAASGSTLSFNAMGWYRQAPGKERELVAAITSSGGSTYYADSVKGRFTISRDNAKNTVYLQMKSLKPEDTAVYYCAADRYTVRMDYWGQGTQVTVSS	high polyreactivity
QVHLVESGGGLVQAGGSLRLTCSASGFTFSTYAMGWYRPAPGKESEMVAVISWNGGSTYYADTVKGRFTISRYNAKNTVYLQMNSLKTEDTAVYYCAARGSFKKGYWGQGTQVTVSS	high polyreactivity
QVQLVESGGGLVQAGGSLRLSCAASGSTSVKYAMGWYRQAPGKERELVAAIRKRGDSTYYADSVKGRFTISRDNAKNTVYLQMNSLKPEDTAVYYCAAQYLRGRGYWGQGTQVTVSS	low polyreactivity
QVQLVESGGGLVQAGGSLRLSCAASGRIFYSYAMGWNRQAPGKESQLVARSTRGSSTYYADSVKGRLTISRDNAKKTFYVQMNSMKPEDTAVYYCAQSRYTALTNHWSHDYWGPGTQVTVSS	low polyreactivity
QVQLVESGGGLVLAGGSLRLSCAASGRTFRSYAMGWYRQAPGKERELVAAISSGGSTNYADSVKGRFTISRDNAKNTVYLQMNSLKPEDTAVYYCAATFQLYRFIGYEYWGQGTQVTVSS	high polyreactivity
QVQLVESGGGLVQAGGSLRLSCSASGRIFQYYAMGWYIKAPGKERELVAAISGRGTSTYYADSVKGRFTISRDNAKNTVYLEMNSLKQEDTAVYYCNADINYKSYFIHTFTIIPYGYWGQGTQVTVSS	low polyreactivity
QVQLVESGGVLVQAGGILRLSCAASVRTFYRYAMGWYRQAPGKERELVAAITSGDRTNYADSVKGRFTMSRDNAKNTVYLQMNSLKPEYTADYYCAARRDYWAPYYYWGQGTQVTVSS	high polyreactivity
QVQLEESGGGLVQAGGSLRLSCAASGGTFYYSPMGWDREPPGKERELVAAIRWRGGNTYYADSVKGRFTISLDNAKNTVYLQMNSVKPEDTAVYYCAAQTHDYNRYVGTTAYDYWGQGTQVTVSS	low polyreactivity
QVQLVESGGGLVQAGGSLRLSCAASGITFAHYAMGWYRQAPGKERELVAVITSGGSTYYADSVKGRFTISRDNAKNTVYLQMNSLKPEDTAVYYCNRVPRRSIRYDYWGQGTQVTVSS	high polyreactivity

Sequence	polyreactivity (PSR sort gate)
QVQLVESGGGLVQAGGSLRLAVLPPELTSTLNDMGWYRQAPGKERELVAAITRGGSTNYADSVKGRFTISRDNAKYTFYLQMNSMKPEDSAVYYCAAPYAGLRDGGDYWGQGTQVTVSS	low polyreactivity
QVQLVESGGGLVQAGGSLRLSCAASGSIFWIYAMGWYRQAPGKERELVATITRRGGSTYYADSVKGRFTISRDNAKNTVYLQMNSLKPEDTAVYYCATEPGYTFLTSYKYDYWGQGTQVTVSS	low polyreactivity
QVQLQESGGCLVQAGGSLRLSCAASGTNSDSGLMGWYRQAPGKERELVAGISSGGITTYADSVKGRFTISRDNAKNTVYLQMNSLKPEDTAVYWGQGTQVTVSC	low polyreactivity
QVQLVESGGGLVQAGGSLRLSCAASGRILPSNAMGWYRPAPGKERELVAGITSGGSTDYADSVKGRFTISRDNAKNTVYLQMNSLKPEDTAVYYCNKPFPYYPDGPNGYDYWGQGTQVTVSS	low polyreactivity
QVQLVESGGGLVQAGGSLRLSCAASGSILWLNAMGWYRQAPGKERELVADITRGGSTYYADSVKGRFTISRDNAKNTVYLQMNSLTPEDTAVYYCAADAYTCQIPYYYFEHYYWGQGTQVTVSS	high polyreactivity
QVQLVESGGGLVQAGGSLRLSCAASGRTFLYYAMGWYRQAPGKERELVAGITSGGSTNYADSVKGRFTITRDNAKNTVYLQMNSLKPEDTAVYYCAVDQGYSRTADVNYDYWGQGTQVTVSS	low polyreactivity
QVQLVESVVGLVQAGGSLRLSCAASGSTFLPYTMGWYRQAPGKETELVAGISGSGPRTYYADSVKGRFTISRDNAKNTVYLQMNSLKPEDTAVYYCAKKSSYRYGYWGQGTQVTVSS	high polyreactivity
QVQLVESGGGLVQAGGSLRLSCAASGSISTWYAMGWYRQAPGKERELVAAINSGDSTYYADSVKGRFTISRDNAKNTVYLQMNSLKPEDTAVYYCAASSYSSKPFDYWGQGTQVTVSS	high polyreactivity
QVQLVESGGGLVQAGGSLRLSCAAYGSTFSRYAMGWYRQAPGKERELVAAISWGGNTYYADSVKGRFTISRDNAKNTVYLQMNSLKPEDTAVYYCASVGGRFFAPYIWSVDSYDYWGQGTQVTVSS	high polyreactivity
QVQLVESGGGLVQAGGSLRLSCAASGRIFYNYAMGWYRQAPGKERELVASINFSGTRTYYADSVKGRFTISRDNAKNTVYLQMNSLKPEDTAVYYCAARQAHGYYYWGQGTQVTVSS	high polyreactivity
QVQLVESGGGLVQAGGSLRLSCAASGITFNSYAMGWYRQAPGKERELVAAISWSGGSTYYADSVKGRFTISRDNAKNTVYLQMNSLKPEDTAVYYCNAEYRYYQKTPGRYTNVEYDYWGQGTQVTVSS	low polyreactivity
QVQLVESGGGLVQAGGSLRLSCAASGSIFALYAMGWYRQAAGKERELVAAITKGGGSTYYADSVKGRFTISRDNAKNTVYLQMNSLKPEDTAVYYCAARGRYSAPDYGYWGQGTQVTVSS	high polyreactivity
QVQLVESGGGLVQAGGSLRLSCAASGSTIEPYAMGWYRQAPGKEREFVAVITLSGGTTYYADSVKGRFTISRDNAKNTVYLQMHSLKPEDTAVYYCNAQYRKARVDEYYYWGQGTQVTVSS	high polyreactivity
QVQLVESGGGLVQAGGSLRLSCAASGFTFYGYAMGWYRQAPGKERELVAAISSSGGRTYYADSVKGRFTISRDNEKNTVYLQMNSLKPEDTAVYYCAAEYRSYRDGYWGLGTQVTVSS	high polyreactivity
QVQHEESGGGLVQAGGRLRLSCAASGRIFKQYALGGYRQAPGKERELVAAISVRGGITYYADSVKGRFTISRDNAMNTVYLQMNSLKPEDTAVYYCAKRSFRTHTYDYWGHGTQVTVSS	low polyreactivity
QVQLVESGGGLVQAGRRLRLSCAASGSTFGYYAMGWYRQAPGKERELVAAITSGATTNYADSVKGRFTISRDNAKNTVYLQMNSLKPEDTAVYYCAAGFQTRTPLNEFDNWGQGTQVTVSS	low polyreactivity
QVQLVESGGGLVQAGGSLRLSCAASGFIFLENDMGCYRQAPGKERELVASINSGSDTNYADSVKGRFTISRDNAKNTVYLQMNSLKPEDTAVYYCNASYNGVPARYDYWGQGTQVTVSS	low polyreactivity
QVQLVESGGGLVQAGGSLRLSCAASGRTFIYYAMGWYRQAPGKERELVASITTGGRTYYADSVKGRFTISRDNAKNTVYLQMNSLKPEDTAGYYCAAVRRIRRPRYGYWGQGTQVTVSS	high polyreactivity
QVQLVESGGGLVQAGGSLRLSCADSVSIVGYYTMGWYRQAPWKARELVSGITSTGNTNYADSVKGRFTISRDNAKNTVYLHMNSLKPEHTAVYYCAADSESTWDFGWELEVGYDYWGQGTQVNVSS	low polyreactivity
QVQLVESGGGLVQAGGSLRLSCAASGRTFARYAMGWYRQAPGKERELVAAISRGGTTNYADSVKGRFTISRDNAKNTVYLQMNSLKPEDTAVYYCNRDFHLIHLSSARLDYWGQGTQVTVSS	low polyreactivity
QVQHVESGGGLVQAGGSLRLSCAASGITFYVNDMGWSRQAPGKEREFVAAISYRGGSPYYADSVKGRFTFSRDNAKNTVYLKMNSLKPEDTAVYYCAADYNYWSPHRYDYWGQGTQVTVSS	low polyreactivity
